# Patent publication US20220153796A1
# Biological target: HLA-A*24 (human)
# Experiment: UV peptide exchange ELISA
row,Binder,peptide exchange yield [%]
1,NYTLYPITF,> 75
2,YLEKFYGL,20 to 50
3,YYADKKTFIVL,50 to 75
4,KYKDYFPVI,> 75
5,SYEVRSTF,50 to 75
6,VWSNVTPLKF,> 75
7,KYALLLQDL,> 75
8,SYNGYVFYL,> 75
9,DYIGSVEKW,> 75
10,ILKEDPFLF,10 to 20
11,TYNPDFSSL,50 to 75
12,VQQWSVAVF,50 to 75
13,SYSSCYSF,50 to 75

# The remaining lines, values ahead:
row,peptide exchange yield [%],Binder
1,> 75,EFTTVLYNF
2,> 75,KFIISDWRF
3,> 75,VWSDVTPLNF
4,> 75,YYSKSVGFMQW
5,> 75,QYLPGWTVLF
6,> 75,PFLPPAACFF
7,> 75,QYQNVLTLW
8,> 75,QYDPTPLTW
9,> 75,SYEKVINYL
10,> 75,HYTYILEVF
11,> 75,YYSIISHTL
12,> 75,RYMKKDYLI
13,> 75,KTPTNYYLF
14,> 75,VYPLLSRLYW
15,10 to 20,STIRGELFFF
16,> 75,TQPGDWTLF
17,> 75,MYPDLSELLM
